First the molecules themselves.
B1: 2SD4 VH/EP B12 scFv (scFv, V domains shown)
VH: QVQLVESGGGLVQPGRSLRLSCAASGFTFDDYAMHWVRQAPGKGLDWVSAITWNSGHIDYADSVEGRFAVSRDNAKNALYLQMNSLRPEDTAVYYCTKASYLSTSSSLDNWGQGTLVTVSS
VL: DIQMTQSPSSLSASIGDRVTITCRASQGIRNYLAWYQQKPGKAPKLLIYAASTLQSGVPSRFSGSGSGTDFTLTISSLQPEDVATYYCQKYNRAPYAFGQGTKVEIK
notes: scFv
B2: VH1-D2/LOE7 scFv (scFv, V domains shown)
VH: QVQLVESGGGLVQPGRSLRLSCAASGFTFDDYAMHWVRQAPGKGLDWVSAITWNSGHIDYADSVEGRFAVSRDNAKNALYLQMNSLRPEDTAVYYCAKVSYLSTASSLDYWGQGTLVTVSS
VL: not shown
notes: scFv; not shown: the scFv linker and the order of the domains
B3: VH1F6/2SD4 VL scFv (scFv, V domains shown)
VH: QVQLVESGGGLVQPGRSLRLSCAASGFTFDDYAMHWVRQAPGKGLDWVSAITWNSGHIDYADSVEGRFAVSRDNAKNALYLQMNSLRPEDTAVYYCAKASFLSTSSSLEYWGQGTLVTVSS
VL: DIQMTQSPSSLSASIGDRVTITCRASQGIRNYLAWYQQKPGKAPKLLIYAASTLQSGVPSRFSGSGSGTDFTLTISSLQPEDVATYYCQKYNSAPYAFGQGTKVEIK
notes: scFv
B4: VH1E4/2SD4 VL scFv (scFv, V domains shown)
VH: QVQLVESGGGLVQPGRSLRLSCAASGFTFDDYAMHWVRQAPGKGLDWVSAITWNSGHIDYADSVEGRFAVSRDNAKNALYLQMNSLRPEDTAVYYCAKASYLSTSSSLHYWGQGTLVTVSS
VL: DIQMTQSPSSLSASIGDRVTITCRASQGIRNYLAWYQQKPGKAPKLLIYAASTLQSGVPSRFSGSGSGTDFTLTISSLQPEDVATYYCQKYNSAPYAFGQGTKVEIK
notes: scFv
B5: VH1G1/2SD4 VL scFv (scFv, V domains shown)
VH: QVQLVESGGGLVQPGRSLRLSCAASGFTFDDYAMHWVRQAPGKGLDWVSAITWNSGHIDYADSVEGRFAVSRDNAKNALYLQMNSLRPEDTAAYYCAKASYLSTSSSLDYWGQGTLVTVSS
VL: DIQMTQSPSSLSASIGDRVTITCRASQGIRNYLAWYQQKPGKAPKLLIYAASTLQSGVPSRFSGSGSGTDFTLTISSLQPEDVATYYCQKYNSAPYAFGQGTKVEIK
notes: scFv
B6: 2SD4 VH/VLLOG9 scFv (scFv, V domains shown)
VH: QVQLVESGGGLVQPGRSLRLSCAASGFTFDDYAMHWVRQAPGKGLDWVSAITWNSGHIDYADSVEGRFAVSRDNAKNALYLQMNSLRPEDTAVYYCTKASYLSTSSSLDNWGQGTLVTVSS
VL: DIQMTQSPSSLSASIGDRVTITCRASQGIRNYLAWYQQKPGKAPKLLIYAASTLQSGVPSRFSGSGSGTDFTLTISSLQPEDVATYYCQKYTSAPYTFGQGTKVEIK
notes: scFv
B7: VH1B11/2SD4 VL scFv (scFv, V domains shown)
VH: QVQLVESGGGLVQPGRSLRLSCAASGFTFDDYAMHWVRQAPGKGLDWVSAITWNSGHIDYADSVEGRFAVSRDNAKNALYLQMNSLRPEDTAVYYCTKASYLSTSSSLDKWGQGTLVTVSS
VL: DIQMTQSPSSLSASIGDRVTITCRASQGIRNYLAWYQQKPGKAPKLLIYAASTLQSGVPSRFSGSGSGTDFTLTISSLQPEDVATYYCQKYNSAPYAFGQGTKVEIK
notes: scFv
B8: VH1D8/2SD4 VL scFv (scFv, V domains shown)
VH: QVQLVESGGGLVQPGRSLRLSCAASGFTFDDYAMHWVRQAPGKGLDWVSAITWNSGHIDYADSVEGRFAVSRDNAKNALYLQMNSLRPEDTAVYYCARASYLSTSSSLDYWGQGTLVTVSS
VL: DIQMTQSPSSLSASIGDRVTITCRASQGIRNYLAWYQQKPGKAPKLLIYAASTLQSGVPSRFSGSGSGTDFTLTISSLQPEDVATYYCQKYNSAPYAFGQGTKVEIK
notes: scFv
B9: 2SD4 VH/VLLOG7 scFv (scFv, V domains shown)
VH: QVQLVESGGGLVQPGRSLRLSCAASGFTFDDYAMHWVRQAPGKGLDWVSAITWNSGHIDYADSVEGRFAVSRDNAKNALYLQMNSLRPEDTAVYYCTKASYLSTSSSLDNWGQGTLVTVSS
VL: DIQMTQSPSSLSASIGDRVTITCRASQGIRNYLAWYQQKPGKAPKLLIYAASTLQSGVPSRFSGSGSGTDFTLTISSLQPEDVATYYCQKYNSAPYNFGQGTKVEIK
notes: scFv
B10: 2SD4 VH/VL10E4 scFv (scFv, V domains shown)
VH: QVQLVESGGGLVQPGRSLRLSCAASGFTFDDYAMHWVRQAPGKGLDWVSAITWNSGHIDYADSVEGRFAVSRDNAKNALYLQMNSLRPEDTAVYYCTKASYLSTSSSLDNWGQGTLVTVSS
VL: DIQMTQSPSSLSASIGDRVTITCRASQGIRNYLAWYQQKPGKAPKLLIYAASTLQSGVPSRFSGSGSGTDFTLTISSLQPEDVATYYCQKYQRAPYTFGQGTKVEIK
notes: scFv
B11: 2SD4 VH/VL0.1H8 scFv (scFv, V domains shown)
VH: QVQLVESGGGLVQPGRSLRLSCAASGFTFDDYAMHWVRQAPGKGLDWVSAITWNSGHIDYADSVEGRFAVSRDNAKNALYLQMNSLRPEDTAVYYCTKASYLSTSSSLDNWGQGTLVTVSS
VL: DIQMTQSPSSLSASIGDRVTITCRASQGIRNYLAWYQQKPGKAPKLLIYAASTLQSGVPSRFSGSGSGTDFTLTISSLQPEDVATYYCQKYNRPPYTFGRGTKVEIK
notes: scFv
B12: 2SD4 VH/VLLOH1 scFv (scFv, V domains shown)
VH: QVQLVESGGGLVQPGRSLRLSCAASGFTFDDYAMHWVRQAPGKGLDWVSAITWNSGHIDYADSVEGRFAVSRDNAKNALYLQMNSLRPEDTAVYYCTKASYLSTSSSLDNWGQGTLVTVSS
VL: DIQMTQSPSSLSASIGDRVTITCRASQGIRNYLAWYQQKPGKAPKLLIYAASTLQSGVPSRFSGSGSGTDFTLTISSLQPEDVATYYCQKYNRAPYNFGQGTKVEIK
notes: scFv
B13: 2SD4 VH/VLLOH10 scFv (scFv, V domains shown)
VH: QVQLVESGGGLVQPGRSLRLSCAASGFTFDDYAMHWVRQAPGKGLDWVSAITWNSGHIDYADSVEGRFAVSRDNAKNALYLQMNSLRPEDTAVYYCTKASYLSTSSSLDNWGQGTLVTVSS
VL: DIQMTQSPSSLSASIGDRVTITCRASQGIRNYLAWYQQKPGKAPKLLIYAASTLQSGVPSRFSGSGSGTDFTLTISSLQPEDVATYYCQKYNSAAYSFGQGTKVEIK
notes: scFv
B14: 2SD4 VH/VL1C7 scFv (scFv, V domains shown)
VH: QVQLVESGGGLVQPGRSLRLSCAASGFTFDDYAMHWVRQAPGKGLDWVSAITWNSGHIDYADSVEGRFAVSRDNAKNALYLQMNSLRPEDTAVYYCTKASYLSTSSSLDNWGQGTLVTVSS
VL: DIQMTQSPSSLSASIGDRVTITCRASQGIRNYLAWYQQKPGKAPKLLIYAASTLQSGVPSRFSGSGSGTDFTLTISSLQPEDVATYYCQKYNSAPYNFGQGTKVEIK
notes: scFv
B15: 2SD4 VH/VL100A9 scFv (scFv, V domains shown)
VH: QVQLVESGGGLVQPGRSLRLSCAASGFTFDDYAMHWVRQAPGKGLDWVSAITWNSGHIDYADSVEGRFAVSRDNAKNALYLQMNSLRPEDTAVYYCTKASYLSTSSSLDNWGQGTLVTVSS
VL: DIQMTQSPSSLSASIGDRVTITCRASQGIRNYLAWYQQKPGKAPKLLIYAASTLQSGVPSRFSGSGSGTDFTLTISSLQPEDVATYYCQKYSSAPYTFGQGTKVEIK
notes: scFv
B16: 2SD4 VH/VL10F4 scFv (scFv, V domains shown)
VH: QVQLVESGGGLVQPGRSLRLSCAASGFTFDDYAMHWVRQAPGKGLDWVSAITWNSGHIDYADSVEGRFAVSRDNAKNALYLQMNSLRPEDTAVYYCTKASYLSTSSSLDNWGQGTLVTVSS
VL: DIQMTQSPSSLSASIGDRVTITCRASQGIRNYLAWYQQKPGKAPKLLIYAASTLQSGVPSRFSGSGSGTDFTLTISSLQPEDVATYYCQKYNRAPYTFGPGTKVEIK
notes: scFv
B17: VH1B12/2SD4 VL scFv (scFv, V domains shown)
VH: QVQLVESGGGLVQPGRSLRLSCAASGFTFDDYAMHWVRQAPGKGLDWVSAITWNSGHIDYADSVEGRFAVSRDNAKNALYLQMNSLRPEDTAVYYCAKASYLSTSFSLDYWGQGTLVTVSS
VL: DIQMTQSPSSLSASIGDRVTITCRASQGIRNYLAWYQQKPGKAPKLLIYAASTLQSGVPSRFSGSGSGTDFTLTISSLQPEDVATYYCQKYNSAPYAFGQGTKVEIK
notes: scFv
B18: 2SD4 VH/VL1C1 scFv (scFv, V domains shown)
VH: QVQLVESGGGLVQPGRSLRLSCAASGFTFDDYAMHWVRQAPGKGLDWVSAITWNSGHIDYADSVEGRFAVSRDNAKNALYLQMNSLRPEDTAVYYCTKASYLSTSSSLDNWGQGTLVTVSS
VL: DIQMTQSPSSLSASIGDRVTITCRASQGIRNYLAWYQQKPGKAPKLLIYAASTLQSGVPSRFSGSGSGTDFTLTISSLQPEDVATYYCQKYNSDPYTFGQGTKVEIK
notes: scFv
B19: VH1A11/2SD4 VL scFv (scFv, V domains shown)
VH: QVQLVESGGGLVQPGRSLRLSCAASGFTFDDYAMHWVRQAPGKGLDWVSAITWNSGHIDYADSVEGRFAVSRDNAKNALYLQMNSLRPEDTAVYYCTKASYLSTSSSLDDWGQGTLVTVSS
VL: DIQMTQSPSSLSASIGDRVTITCRASQGIRNYLAWYQQKPGKAPKLLIYAASTLQSGVPSRFSGSGSGTDFTLTISSLQPEDVATYYCQKYNSAPYAFGQGTKVEIK
notes: scFv
B20: 2SD4 VH/VLL0F10 scFv (scFv, V domains shown)
VH: QVQLVESGGGLVQPGRSLRLSCAASGFTFDDYAMHWVRQAPGKGLDWVSAITWNSGHIDYADSVEGRFAVSRDNAKNALYLQMNSLRPEDTAVYYCTKASYLSTSSSLDNWGQGTLVTVSS
VL: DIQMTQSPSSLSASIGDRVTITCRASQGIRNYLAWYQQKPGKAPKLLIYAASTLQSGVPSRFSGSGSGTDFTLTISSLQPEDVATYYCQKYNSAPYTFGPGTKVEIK
notes: scFv
B21: 2SD4 VH/VL0.1F4 scFv (scFv, V domains shown)
VH: QVQLVESGGGLVQPGRSLRLSCAASGFTFDDYAMHWVRQAPGKGLDWVSAITWNSGHIDYADSVEGRFAVSRDNAKNALYLQMNSLRPEDTAVYYCTKASYLSTSSSLDNWGQGTLVTVSS
VL: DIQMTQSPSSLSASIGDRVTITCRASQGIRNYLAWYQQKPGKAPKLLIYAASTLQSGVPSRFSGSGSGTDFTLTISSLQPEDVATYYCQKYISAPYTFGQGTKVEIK
notes: scFv
B22: 2SD4 VH/VL1B7 scFv (scFv, V domains shown)
VH: QVQLVESGGGLVQPGRSLRLSCAASGFTFDDYAMHWVRQAPGKGLDWVSAITWNSGHIDYADSVEGRFAVSRDNAKNALYLQMNSLRPEDTAVYYCTKASYLSTSSSLDNWGQGTLVTVSS
VL: DIQMTQSPSSLSASIGDRVTITCRASQGIRNYLAWYQQKPGKAPKLLIYAASTLQSGVPSRFSGSGSGTDFTLTISSLQPEDVATYYCQQYNSAPDTWGQGTKVEIK
notes: scFv
B23: 2SD4 VH/VL100D2 scFv (scFv, V domains shown)
VH: QVQLVESGGGLVQPGRSLRLSCAASGFTFDDYAMHWVRQAPGKGLDWVSAITWNSGHIDYADSVEGRFAVSRDNAKNALYLQMNSLRPEDTAVYYCTKASYLSTSSSLDNWGQGTLVTVSS
VL: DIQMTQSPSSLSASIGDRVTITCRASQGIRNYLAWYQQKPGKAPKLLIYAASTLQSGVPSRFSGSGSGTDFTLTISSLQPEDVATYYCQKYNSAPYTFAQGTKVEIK
notes: scFv
B24: 2SD4/2SD4 (format printed as scFv/IgG1/IgG4) (antibody, V domains shown)
VH: QVQLVESGGGLVQPGRSLRLSCAASGFTFDDYAMHWVRQAPGKGLDWVSAITWNSGHIDYADSVEGRFAVSRDNAKNALYLQMNSLRPEDTAVYYCTKASYLSTSSSLDNWGQGTLVTVSS
VL: DIQMTQSPSSLSASIGDRVTITCRASQGIRNYLAWYQQKPGKAPKLLIYAASTLQSGVPSRFSGSGSGTDFTLTISSLQPEDVATYYCQKYNSAPYAFGQGTKVEIK

The target in one test is T1, biotinylated recombinant human TNFα (human, UniProt P01375 77-233, biotinylated (D-biotinyl-ε-aminocaproic acid N-hydroxysuccinimide ester, 2:1 molar ratio of biotin to rhTNFα)).
T1 construct: mature; Immobilized via streptavidin on the BIAcore chip; also called biotinylated rhTNFα; biotinylated rhTNF
T1 sequence (P01375 77-233 limits assumed): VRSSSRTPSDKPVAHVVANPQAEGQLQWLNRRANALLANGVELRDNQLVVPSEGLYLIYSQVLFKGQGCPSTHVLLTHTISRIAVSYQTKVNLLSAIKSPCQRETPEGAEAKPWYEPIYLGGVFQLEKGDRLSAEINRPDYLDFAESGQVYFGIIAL
In words: SPR (BIAcore), biotinylated rhTNFα, scFv. (In SPR one partner is held on a chip, and binding of the other changes the refractive index at the surface.)
Method: Before injection of the protein and immediately afterward, PBS buffer alone flowed through each flow cell. […] Antibodies (20 μg/ml) were diluted in PBS running buffer and 25 μl aliquots were injected through the immobilized protein matrices at a flow rate of 5 μl/min. Prior to injection of antibody, and immediately afterwards, PBS buffer alone flowed through each flow cell. The net difference in baseline signal and signal after completion of antibody injection was taken to represent the binding value of the particular sample. Biosensor matrices were regenerated using 100 mM HCI before injection of the next sample. To determine the off rate (Koff), on rate (Kₒₙ), association rate (Kₐ) and dissociation rate (Kd) constants, BIAcore kinetic evaluation software (version 2.1) was used.
For B1, the off-rate (koff) was found to be 0.0067 s⁻¹. Still for that read-out and setting: next, B2: 0.00046 s⁻¹. On the same count and under the same terms, the value for B3 was 0.0229 s⁻¹; that for B4 was 0.0159 s⁻¹; that for B5 was 0.0214 s⁻¹. Same read-out and setting: the value for B6 was 0.0146 s⁻¹; that for B7 was 0.0098 s⁻¹; that for B8 was 0.0095 s⁻¹.

With B9, the koff worked out at 0.0156 s⁻¹. Same read-out and setting: the value for B10 was 0.0096 s⁻¹; that for B11 was 0.0114 s⁻¹.

On to B12, for which the koff turned out to be 0.0117 s⁻¹. The same measure, in the same setting: next, B13: 0.0112 s⁻¹. Same read-out and setting: the value for B14 was 0.02 s⁻¹. On the same count and under the same terms, next, B15: 0.0133 s⁻¹; B16: 0.0111 s⁻¹; B17: 0.0101 s⁻¹. Consider B18, for which the koff was 0.0136 s⁻¹.

Regarding B19, the koff came to 0.0134 s⁻¹. On the same count and under the same terms, next, B20: 0.0134 s⁻¹; B21: 0.0176 s⁻¹; B22: 0.013 s⁻¹. Still for that read-out and setting: next, B23: 0.0141 s⁻¹.

The target in a further test is recombinant human TNFα (human, UniProt P01375 77-233, The active form is a noncovalent homotrimer; one protomer is given.). In words: cell-based or functional assay.
recombinant human TNFα, sequence (P01375 77-233 limits assumed): as above
For B24, the “IC50, neutralization of TNFα-induced L929 cytotoxicity” value was 300 nM.

As usually defined, the koff is a measure of how fast the partners let go of each other.
